Measured values as given in the RNAGym collection of RNA variant scans (doi:10.7554/elife.80360).

B1: Hairpin Ribozyme (parent)
chain: GUCCUCUUUCACGUGCGCGUGAAAGAGAGAAGUGAACCAGAGAAACACACGUUGUGGUAUAUUACCUGGUA

Variants of: B1
Assay: self-cleavage, relative activity (ratio to wild type); higher = more cleavage; co-transcriptional

Row | Variant | self-cleavage
1 | G32U A36G | 0.0896
2 | G32U A36U | 0.101
3 | G32U A41C | 0.105
4 | G32U A41U | 0.0937
5 | G32U A47C | 0.167
6 | G32U A59G | 0.181
7 | G32U A61C | 0.157
8 | G32U A71U | 0.131
9 | G32U C37G | 0.0126
10 | G32U C46U | 0.276
11 | G32U C50G | 0.162
12 | G32U C50U | 0.119
13 | G32U C65A | 0.064
14 | G32U C65G | 0.104
15 | G32U C65U | 0.115
16 | G32U C66A | 0.229
17 | G32U G34A | 0.133
18 | G32U G42C | 0.127
19 | G32U G42U | 0.107
20 | G32U G51C | 0.148
21 | G32U G54C | 0.1
22 | G32U G56U | 0.145
23 | G32U G57U | 0.162
24 | G32U G68A | 0.0877

Row | Variant | self-cleavage
25 | G32U G68U | 0.114
26 | G32U G69C | 0.136
27 | G32U U52A | 0.155
28 | G32U U52G | 0.0995
29 | G32U U55C | 0.165
30 | G32U U55G | 0.132
31 | G32U U58A | 0.0967
32 | G32U U60G | 0.0848
33 | G32U U62A | 0.052
34 | G32U U62C | 0.0761
35 | G32U U70A | 0.111
36 | U33A A36C | 0.0569
37 | U33A A39G | 0.122
38 | U33A A39U | 0.0937
39 | U33A A41U | 0.111
40 | U33A A44C | 0.205
41 | U33A A44G | 0.16
42 | U33A A45C | 0.231
43 | U33A A45G | 0.127
44 | U33A A47C | 0.0723
45 | U33A A49G | 0.0427
46 | U33A A59C | 0.143
47 | U33A A59U | 0.177
48 | U33A A71C | 0.389

Row | Variant | self-cleavage
49 | U33A A71U | 0.137
50 | U33A C46U | 0.0735
51 | U33A C48A | 0.0899
52 | U33A C65A | 0.225
53 | U33A C65G | 0.225
54 | U33A C66A | 0.0709
55 | U33A C66U | 0.151
56 | U33A G42C | 0.14
57 | U33A G51C | 0.157
58 | U33A G54A | 0.213
59 | U33A G54U | 0.186
60 | U33A G56C | 0.11
61 | U33A G57A | 0.137
62 | U33A G57C | 0.157
63 | U33A G68U | 0.162
64 | U33A G69A | 0.0983
65 | U33A G69C | 0.124
66 | U33A G69U | 0.134
67 | U33A U52A | 0.122
68 | U33A U55C | 0.149
69 | U33A U60C | 0.263
70 | U33A U60G | 0.0384
71 | U33A U63C | 0.0601
72 | U33A U67A | 0.0848

Row | Variant | self-cleavage
73 | U33A U70C | 0.119
74 | U33A U70G | 0.253
75 | U33C A35C | 0.12
76 | U33C A35G | 0.192
77 | U33C A36C | 0.199
78 | U33C A36U | 0.0847
79 | U33C A39U | 0.0555
80 | U33C A41G | 0.193
81 | U33C A43G | 0.196
82 | U33C A44C | 0.226
83 | U33C A45C | 0.124
84 | U33C A45U | 0.15
85 | U33C A47C | 0.106
86 | U33C A61G | 0.0977
87 | U33C A64C | 0.102
88 | U33C A64G | 0.0772
89 | U33C A71C | 0.63
90 | U33C A71G | 0.241
91 | U33C C38A | 0.087
92 | U33C C48A | 0.0642
93 | U33C C48G | 0.227
94 | U33C C65A | 0.159
95 | U33C C65G | 0.138
96 | U33C C66A | 0.0633

Row | Variant | self-cleavage
97 | U33C G34A | 0.142
98 | U33C G34C | 1.28
99 | U33C G40A | 0.0908
100 | U33C G40U | 0.121
101 | U33C G42A | 0.0915
102 | U33C G51A | 0.231
103 | U33C G51U | 0.144
104 | U33C G56U | 0.26
105 | U33C G57A | 0.242
106 | U33C G68A | 0.104
107 | U33C G68U | 0.258
108 | U33C G69A | 0.0835
109 | U33C G69C | 0.114
110 | U33C U52A | 0.162
111 | U33C U52G | 0.1
112 | U33C U53A | 0.198
113 | U33C U55G | 0.418
114 | U33C U63C | 0.187
115 | U33C U67A | 0.119
116 | U33C U67C | 0.129
117 | U33G A35G | 0.126
118 | U33G A36U | 0.129
119 | U33G A39G | 0.119
120 | U33G A39U | 0.0926

Row | Variant | self-cleavage
121 | U33G A41G | 0.0864
122 | U33G A43C | 0.0935
123 | U33G A43U | 0.0768
124 | U33G A47C | 0.0542
125 | U33G A49C | 0.114
126 | U33G A49G | 0.135
127 | U33G A61C | 0.041
128 | U33G A64G | 0.108
129 | U33G A71G | 0.184
130 | U33G C37A | 0.109
131 | U33G C37G | 0.064
132 | U33G C37U | 0.267
133 | U33G C46G | 0.174
134 | U33G C50A | 0.123
135 | U33G C50U | 0.14
136 | U33G C66U | 0.21
137 | U33G G34U | 0.0449
138 | U33G G42U | 0.153
139 | U33G G51A | 0.118
140 | U33G G56A | 0.221
141 | U33G G57U | 0.2
142 | U33G U53A | 0.138
143 | U33G U55A | 0.11
144 | U33G U55G | 0.0574

Row | Variant | self-cleavage
145 | U33G U58G | 0.155
146 | U33G U67G | 0.0324
147 | U33G U70G | 0.111
148 | G34A A35C | 1.43
149 | G34A A35G | 1.1
150 | G34A A39C | 0.456
151 | G34A A39G | 0.768
152 | G34A A39U | 0.304
153 | G34A A41C | 0.826
154 | G34A A43U | 0.18
155 | G34A A44U | 0.113
156 | G34A A59G | 0.2
157 | G34A A61U | 0.218
158 | G34A A64G | 0.625
159 | G34A A71U | 1.02
160 | G34A C37A | 0.534
161 | G34A C38U | 0.655
162 | G34A C46A | 0.198
163 | G34A C48A | 0.122
164 | G34A C48G | 0.17
165 | G34A C50G | 0.481
166 | G34A C65U | 0.673
167 | G34A G40A | 0.407
